Laboratory results: patent publication US20230099801A1, “RESTORATION OF T CELL ACTIVITY VIA THE CD39/CD73 AXIS” (INNATE PHARMA, priority 2017, published 2023)
“Also recorded” adds a separate entry of the source.

How the values were obtained:
[1] = molecular target: T1, CHO cells expressing murine CD39 (CHO-moCD39) (Mus musculus, UniProt P55772); assay: Antibody titration on CHO-moCD39 cells by flow cytometry; assay type: binding
T1 construct: expressed in transfected cells; host or cells: CHO cells
T1 sequence (P55772 1-510): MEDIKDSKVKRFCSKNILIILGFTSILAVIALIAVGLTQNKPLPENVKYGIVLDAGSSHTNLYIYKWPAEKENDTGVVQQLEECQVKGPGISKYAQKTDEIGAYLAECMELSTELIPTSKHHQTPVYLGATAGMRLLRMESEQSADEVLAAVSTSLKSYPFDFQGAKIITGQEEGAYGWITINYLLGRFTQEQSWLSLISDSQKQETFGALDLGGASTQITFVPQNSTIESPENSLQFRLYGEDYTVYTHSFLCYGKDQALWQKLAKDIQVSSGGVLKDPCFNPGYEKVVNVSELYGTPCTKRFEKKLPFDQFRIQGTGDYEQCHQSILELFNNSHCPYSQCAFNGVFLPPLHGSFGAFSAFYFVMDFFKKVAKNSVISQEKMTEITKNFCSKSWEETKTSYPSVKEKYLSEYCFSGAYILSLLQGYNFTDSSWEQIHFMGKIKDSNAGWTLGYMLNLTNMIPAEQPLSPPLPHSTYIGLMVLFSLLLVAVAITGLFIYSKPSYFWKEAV
Experimental: Cells were incubated with various concentration of unlabeled anti-CD39 antibody from 30 μg/ml to 5×10^−4 μg/ml, for 30 minutes at 4° C. After washes, cells were incubated with Goat anti-mouse H+L labeled secondary antibody for 30 min at 4° C.

[2] = molecular target: T2, Human CD39-L1 (NTPDase2, ENTPD2) (Homo sapiens, UniProt Q9Y5L3); assay: ELISA titration on CD39-L1; assay type: binding
T2 sequence (Q9Y5L3 1-472 isoform Q9Y5L3-2): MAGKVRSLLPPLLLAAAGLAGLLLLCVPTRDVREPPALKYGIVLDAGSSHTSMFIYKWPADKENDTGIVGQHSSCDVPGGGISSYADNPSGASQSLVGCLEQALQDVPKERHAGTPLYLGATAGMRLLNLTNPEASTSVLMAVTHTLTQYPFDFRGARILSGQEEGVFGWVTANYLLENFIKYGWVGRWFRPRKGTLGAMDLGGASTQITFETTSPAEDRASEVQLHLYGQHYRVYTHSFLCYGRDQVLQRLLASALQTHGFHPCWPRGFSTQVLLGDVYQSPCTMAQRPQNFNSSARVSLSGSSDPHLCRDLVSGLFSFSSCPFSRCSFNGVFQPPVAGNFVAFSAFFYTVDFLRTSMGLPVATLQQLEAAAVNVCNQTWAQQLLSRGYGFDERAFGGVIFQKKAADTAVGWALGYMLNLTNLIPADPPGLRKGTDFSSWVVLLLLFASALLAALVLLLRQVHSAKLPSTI
Experimental: Wells were washed in TBS Tween 20, and further saturated 2H at RT in TBS Blocking buffer. Dose range concentration of primary antibody was incubated in TBS blocking buffer for 2h at RT. Wells were washed in TBS Tween 20. […] Optical density was measured on Enspire™ at OD=450.

[3] = test system: monocyte-derived DC (moDC); assay: Activation of dendritic cells in presence of ATP; assay type: cell-based, human; settings: ATP at each of 0.125 mM, 0.25 mM or 0.5 mM; I-394 at 10 μg/ml
Experimental: While ATP has pro-inflammatory activity, CD39-mediated catabolism of ATP is believed to be able to impair dendritic cell (DC) activation, in turn altering a broader adaptive immune response against tumor antigen. In order to evaluate whether CD39 blockade using anti-CD39 antibodies could overcome CD39-mediated alteration of dendritic cell (DC) activation in the presence of ATP, we incubated monocyte-derived DC (moDC) with anti-CD39 antibodies in the presence of ATP.
Briefly, human monocytes were purified from human healthy blood and differentiated into MoDC in presence of GM-CSF and IL-4 during 6 days. […] LPS (Invivogen, 10 ng/ml) was used as positive control. To assess resulting effect of ATP-mediated DC activation on CD4 T cells activation, ATP-activated DC were washed and then incubated with allogenic CD4 T cells (ratio 1 MoDC/4 T cells) for a mixed lymphocytes reaction (MLR) during 5 days. T cells activation and proliferation were analyzed through CD25 expression and Cell Trace Violet dilution by flow cytometry (FIG. 8).

CD4 T cells = assay: T cell proliferation assay in presence of added ATP, CD4 T cells; assay type: cell-based, human
Experimental: Peripheral blood from healthy donors was obtained from EFS, and mononuclear cells were isolated on a Ficoll gradient. Lymphocytes were further enriched on a 52% Percoll gradient by collection of the cell pellets and stained with a Cell Trace dye (Thermofisher) following the TDS provided by the manufacturer. […] Inhibition of T cell proliferation was achieved by addition of ATP (200 μM). T cell proliferation and ability of Abs to block immune suppressive effect of AMP were assessed by flow cytometry by quantifying the dye dilution in the proliferating T cell subset.
Percentage of proliferating T cells vs. anti-CD73 Ab concentration is plotted in graphs using GraphPad Prism software.

B1: I-394: anti-CD39 antibody, VH SEQ ID NO: 6, VL SEQ ID NO: 7; heavy/light chains SEQ ID NOS: 52 and 53 (antibody)
heavy: EVQLQQSGPELVKPGASVKMSCKASGYTFTDYNMHWVKQSHGRTLEWIGYIVPLNGGSTFNQKFKGRATLTVNTSSRTAYMELRSLTSEDSAAYYCARGGTRFAYWGQGTLVTVSAASTKGPSVFPLAPSSKSTSGGTAALGCLVKDYFPEPVTVSWNSGALTSGVHTFPAVLQSSGLYSLSSVVTVPSSSLGTQTYICNVNHKPSNTKVDKRVEPKSCDKTHTCPPCPAPEAEGAPSVFLFPPKPKDTLMISRTPEVTCVVVDVSHEDPEVKFNWYVDGVEVHNAKTKPREEQYNSTYRVVSVLTVLHQDWLNGKEYKCKVSNKALPSSIEKTISKAKGQPREPQVYTLPPSREEMTKNQVSLTCLVKGFYPSDIAVEWESNGQPENNYKTTPPVLDSDGSFFLYSKLTVDKSRWQQGNVFSCSVMHEALHNHYTQKSLSLSPGK
light: DIVLTQSPASLAVSLGQRATISCRASESVDNFGVSFMYWFQQKPGQPPNLLIYGASNQGSGVPARFRGSGSGTDFSLNIHPMEADDTAMYFCQQTKEVPYTFGGGTKLEIKRTVAAPSVFIFPPSDEQLKSGTASVVCLLNNFYPREAKVQWKVDNALQSGNSQESVTEQDSKDSTYSLSSTLTLSKADYEKHKVYACEVTHQGLSSPVTKSFNRGEC
modifications: Chimeric homo sapiens mus musculus
binding to cells expressing murine CD39 [1]: not to cells expressing murine CD39 | binding to CD39-L1 in ELISA [2]: not to any of the human isoforms | moDC activation as assessed by HLA-DR or CD83 expression [3]: permitted moDC activation; also recorded: lead to moDC activation | potentiation of anti-CD73 antibodies in restoring CD4 T cell proliferation (CD4 T cells; added ATP 200 μM, anti-CD39 at 0.01, 0.1, 1 μg/ml): strongly potentiation | increase in potency of anti-CD73 antibodies (CD4 T cells; anti-CD39 antibody at 0.01 μg/ml): approximately 1 log | increase in potency of anti-CD73 antibodies (CD4 T cells; anti-CD39 antibody at 0.1 μg/ml): approximately 4 log | enhancement of CD4 T cell proliferation, alone without anti-CD73 (CD4 T cells; concentrations of 0.1 μg/ml and 1 μg/ml, added ATP): remarkable enhancement
